Experimental data as given in PMC6902690 (The FASEB Journal, 2019).

Target: factor H binding protein variant 1, recombinant (Neisseria meningitidis serogroup B …, UniProt Q9JXV4, strain)
Test: Gyrolab immunoassay; biotinylated fHbp v1, v2 or v3 as capture reagent (100 µg/ml); Fabs at 10 µg/ml in Rexxip H; detection with goat anti-human IgG Fab fragment specific-Alexa 647 (25 nM); Bioaffy 200 CDs, 3-step method; positive when the fluorescent signal was higher than 10
Details: both partners purified

B1: huFab 1E6 (recombinant Fab produced in E. coli) (Fab, V domains shown)
VH: EVQLVQSGAEVKKPGSSVKVSCKASGGTVIDYPITWVRQAPGQGLEWVGGFVPLFRTSNYGQKFQGRVTITADKSTSTASMELNSLTSEDTAIYYCARGDTAMGPFDYWGQGTLVTVSS
VL: SYVLTQPPSLSVAPGKTATLTCGGNNIAGKTVHWYQQRPGQAPVLVISYDSDRPSGIPERFSGSNSANTATLTISRVEAGDEADYYCQVWDRNSDHWVFGGGTKLTVL
  binding result: binds
